Measured values from publication PMC5240591.
Like-named read-outs stand apart in the source and are kept apart here.

Experiments:
Experiment in all cases: fluorescence polarisation
[1] = target: T4 lysozyme mutant D70N, bimane-labelled at Cys151 (T151Bi) (bacteriophage T4) (UniProt P00720)
[2] = target: T4 lysozyme mutant L99A, bimane-labelled at Cys151 (T151Bi) (bacteriophage T4) (UniProt P00720)
[3] = target: T4 lysozyme mutant L99A/A130S, bimane-labelled at Cys151 (T151Bi) (bacteriophage T4) (UniProt P00720)
[4] = target: T4 lysozyme mutant L99A, bimane-labelled at Cys151 (T151Bi) (bacteriophage T4) (UniProt P00720); remark: listed apart in the source
[5] = target: T4 lysozyme mutant L99A, bimane-labelled at Cys151 (T151Bi) (bacteriophage T4) (UniProt P00720); remark: listed apart in the source
[6] = target: T4 lysozyme mutant L99A/A130S, bimane-labelled at Cys151 (T151Bi) (bacteriophage T4) (UniProt P00720); remark: listed apart in the source
[7] = target: T4 lysozyme mutant L99A, bimane-labelled at Cys151 (T151Bi) (bacteriophage T4) (UniProt P00720); remark: listed apart in the source
[8] = target: T4 lysozyme mutant L99A/A130S, bimane-labelled at Cys151 (T151Bi) (bacteriophage T4) (UniProt P00720); remark: listed apart in the source

| Substance | Kd [1] | Kd [2] | Kd [3] | Kd [4] | stoichiometry N [2] | stoichiometry N [3] | Kd [5] | Kd [6] | Kd [7] | stoichiometry N [7] | stoichiometry N [4] | Kd [8] |
| --- | --- | --- | --- | --- | --- | --- | --- | --- | --- | --- | --- | --- |
| human αB-crystallin (from UniProt P02511 1-175) (natural protein) | – | – | – | 28000 nM | – | – | – | – | – | – | – | – |
| rat αA^ins-crystallin (from UniProt P24623 1-196) (natural protein) | 6820 nM | 17 nM | 64 nM | – | 0.33 | 0.32 | – | – | – | – | – | – |
| zebrafish αA-crystallin (from UniProt Q8UUZ6 1-173) (natural protein) | 88900 nM | 8160 nM | 6200 nM | 8320 nM | – | 1.25 | 50700 nM | 20900 nM | – | – | – | – |
| zebrafish αBb-crystallin (from UniProt Q6DG35 1-165) (natural protein) | 4850 nM | 1340 nM | 120 nM | – | – | 0.33 | – | 4940 nM | – | – | – | 29000 nM |

Further substances by falling Kd [4], results first:

| Kd [1] | Kd [2] | Kd [3] | Kd [4] | stoichiometry N [2] | stoichiometry N [3] | Kd [5] | Kd [6] | Kd [7] | stoichiometry N [7] | stoichiometry N [4] | Kd [8] | Substance |
| --- | --- | --- | --- | --- | --- | --- | --- | --- | --- | --- | --- | --- |
| 14600 nM | 2430 nM | 2370 nM | 1900 nM | – | – | – | – | – | – | – | – | human αA-crystallin (from UniProt P02489 1-173) (natural protein) |
| – | – | – | 71 nM | – | – | – | – | – | – | – | – | triply phosphorylated analog (S19D/S45D/S59D) of human αB-crystallin (from UniProt P02511 1-175) (natural protein) |
| 1870 nM | 58 nM | 63 nM | 68 nM | 0.47 | 0.65 | 920 nM | 210 nM | 12 nM | 0.64 | 0.65 | – | zebrafish αBa-crystallin, population αBa-S (from UniProt Q9PUR2 1-168) (natural protein) |
| – | – | – | 38 nM | – | – | – | – | – | – | – | – | triply phosphorylated analog (S15D/S78D/S82D) of human Hsp27 (from UniProt P04792 1-205) (natural protein) |
